Reference: publication PMC2367706
Where two headings read alike, the source gives them in different places.

T1: GST:CD+HD (UniProt Q01826 255-763)
T1 sequence: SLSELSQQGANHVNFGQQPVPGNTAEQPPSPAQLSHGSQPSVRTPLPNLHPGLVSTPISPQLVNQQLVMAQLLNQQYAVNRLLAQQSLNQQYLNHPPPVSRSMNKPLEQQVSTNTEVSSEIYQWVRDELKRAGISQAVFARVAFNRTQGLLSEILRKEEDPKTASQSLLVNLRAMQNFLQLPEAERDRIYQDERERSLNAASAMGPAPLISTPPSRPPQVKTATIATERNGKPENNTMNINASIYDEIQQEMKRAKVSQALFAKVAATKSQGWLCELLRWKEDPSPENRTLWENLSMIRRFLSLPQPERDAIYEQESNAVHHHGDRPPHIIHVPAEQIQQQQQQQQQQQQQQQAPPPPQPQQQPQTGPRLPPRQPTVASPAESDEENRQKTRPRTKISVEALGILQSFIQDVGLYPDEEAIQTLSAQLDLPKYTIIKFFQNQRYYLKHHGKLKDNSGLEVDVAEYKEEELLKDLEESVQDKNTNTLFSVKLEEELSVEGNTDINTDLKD

T2: GST:HD (UniProt Q01826 640-763)
T2 sequence: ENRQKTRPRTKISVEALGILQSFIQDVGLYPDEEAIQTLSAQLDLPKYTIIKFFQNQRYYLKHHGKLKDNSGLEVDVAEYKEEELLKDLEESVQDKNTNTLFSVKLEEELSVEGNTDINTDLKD

B1: probe 10 (dsDNA)
DNA 1: TATTAGTAATACTATTAGTAATAC
DNA 2: GTATTACTAATAGTATTACTAATA
B2: probe 13 (IgH MAR core dimer) (dsDNA)
DNA 1: AATTTCTAATATAATTTCTAATAT
DNA 2: ATATTAGAAATTATATTAGAAATT
B3: probe 5 (dsDNA)
DNA 1: TATTAATAATAATATTAATAATAA
DNA 2: TTATTATTAATATTATTATTAATA
B4: probe 9 (dsDNA)
DNA 1: TATTAGTAATCATATTAGTAATCA
DNA 2: TGATTACTAATATGATTACTAATA
B5: CSBS dimer (probe 1) (dsDNA)
DNA 1: TATTAGTAATAATATTAGTAATAA
DNA 2: TTATTACTAATATTATTACTAATA
B6: probe 3 (dsDNA)
DNA 1: TATTAGCAATAATATTAGCAATAA
DNA 2: TTATTGCTAATATTATTGCTAATA

Tests used:
Experiment in all cases: EMSA
GST:CD+HD [1] = target: T1, GST:CD+HD
GST:HD = target: T2, GST:HD
GST:CD+HD [2] = target: T1, GST:CD+HD; remark: listed apart in the source

Binder	Kd (GST:CD+HD [1])	Kd (GST:HD)	Kd (GST:CD+HD [2])
B1	20 nM	200 nM	
B2	10 nM		
B3	10 nM		
B4	10 nM		
B5		200 nM	10 nM
B6	50 nM		
